Test [1] addresses T1, AP2 α-appendage (residues 695 to 938) (UniProt P17427 695-938).
T1 construct: AP2 α subunit (α2), appendage, residues 695 to 938; also called α2 ear; pGEX4T2α-appendage; source: E. coli BL21 plyS, purified (GST beads, thrombin, Superdex 200)
Nature of the test: ITC; α-appendage or β2-appendage with C block peptides; 100 mM tris pH 7.4, 150 mM NaCl, 0.25 mM TCEP; 12°C; peptides 1 to 5 mM titrated. Particulars: both partners purified. For orientation: In ITC the heat of successive injections is recorded.

Test [2] deals with T2, Cμ2 (μ2 residues 160 to 435) (UniProt P84092 160-435).
T2 construct: AP2 μ2 subunit, C-terminal subdomain, residues 160 to 435; in the chimera crystals Cμ2 carries an N-terminal His6 tag or a thrombin-cleaved GST tag; also called His6μ2 (residues 160 to 435) wt; isolated Cμ2; source: E. coli BL21 plyS, purified (Ni-NTA, Superdex 200)
T2 sequence (looked up): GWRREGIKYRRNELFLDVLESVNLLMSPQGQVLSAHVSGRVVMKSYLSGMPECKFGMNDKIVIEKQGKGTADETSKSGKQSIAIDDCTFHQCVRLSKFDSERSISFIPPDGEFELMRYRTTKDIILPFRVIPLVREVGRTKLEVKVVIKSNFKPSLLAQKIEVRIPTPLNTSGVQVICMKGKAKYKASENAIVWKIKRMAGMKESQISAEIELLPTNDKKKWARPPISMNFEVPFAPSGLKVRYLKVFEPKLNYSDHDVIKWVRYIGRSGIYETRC
Nature of the test: ITC; Cμ2 with FCHO2 constructs or peptides; 100 mM tris pH 7.4, 150 mM NaCl, 0.25 mM TCEP; 12°C; Nano ITC. Conditions: both partners purified.

T1 sequence (P17427 695-938): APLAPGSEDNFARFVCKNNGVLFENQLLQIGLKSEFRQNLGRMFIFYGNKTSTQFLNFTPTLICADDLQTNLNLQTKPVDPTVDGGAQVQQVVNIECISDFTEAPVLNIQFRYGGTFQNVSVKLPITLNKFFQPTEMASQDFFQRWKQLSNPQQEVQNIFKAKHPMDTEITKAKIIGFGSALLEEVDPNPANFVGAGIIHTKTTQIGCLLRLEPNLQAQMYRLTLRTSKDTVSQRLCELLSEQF

B1: FCHO1 C peptide, LES to AAA (peptide, UniProt O14526 426-448, looked up)
peptide: QSEEQVSKNLFGPPAAAAFDHED
B1 displayed a Kd in test [1] of more than 500 µM.

B2: FCHO2-N1+N2 EEK mutant (domain or fragment)
chain: NIPDVDAAGYSIAPETNQNDTKENHFYSSSDSDSEDEEPKKYRIEIKPMHPNNSHHTMASLDELKVSIGNITLSPAISRHS
For B2, the “fold reduction of binding against FCHO2-N1+N2 wild type” value in test [2] was 5 fold.

Broadly, the Kd is the constant that tells how readily two partners part at equilibrium.
